According to patent US20260167699A1 (Chugai, published 2026):

T1: FcγRIIb (human, UniProt P31994 43-217)
T1 construct: extracellular domain; also called 2b
T1 sequence: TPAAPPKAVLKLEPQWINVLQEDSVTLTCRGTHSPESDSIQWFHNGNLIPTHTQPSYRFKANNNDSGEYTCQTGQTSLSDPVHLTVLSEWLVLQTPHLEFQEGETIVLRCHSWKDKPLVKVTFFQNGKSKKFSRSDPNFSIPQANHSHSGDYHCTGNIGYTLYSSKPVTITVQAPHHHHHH

T2: FcγRIIa(R) (human, UniProt P12318 34-217)
T2 construct: extracellular domain; also called FcγRIIa R type; 2aR
T2 sequence: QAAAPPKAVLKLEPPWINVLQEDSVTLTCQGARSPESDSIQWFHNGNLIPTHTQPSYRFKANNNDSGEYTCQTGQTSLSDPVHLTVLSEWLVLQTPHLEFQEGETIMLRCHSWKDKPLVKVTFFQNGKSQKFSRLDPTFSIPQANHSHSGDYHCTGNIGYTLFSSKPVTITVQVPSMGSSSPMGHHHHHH

T3: FcγRIIa(H) (human, UniProt P12318 34-217)
T3 construct: extracellular domain; also called FcγRIIa H type; 2aH
T3 sequence: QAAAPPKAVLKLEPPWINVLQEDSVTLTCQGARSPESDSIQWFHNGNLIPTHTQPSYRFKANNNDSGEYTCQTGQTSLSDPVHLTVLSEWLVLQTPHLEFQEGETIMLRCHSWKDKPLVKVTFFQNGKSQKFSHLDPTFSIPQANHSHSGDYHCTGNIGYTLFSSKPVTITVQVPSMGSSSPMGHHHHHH


Experiments:
Experiment in all cases: SPR (Biacore), binding relative to GpH7-A5/GpH7-B3/GpL16-k0 x100;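 note: surface plasmon resonance at 25 °C, antibody captured on a sensor chip and soluble FcγR flowed over it in HBS-EP+ running buffer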
[1] = target: T1, FcγRIIb
[2] = target: T2, FcγRIIa(R)
[3] = target: T4, FcγRIa (human, UniProt P12314 16-292)
T4 construct: extracellular domain; also called 1a

[4] = target: T3, FcγRIIa(H)

T4 sequence (P12314 other isoform, or with tags, fused parts or gaps): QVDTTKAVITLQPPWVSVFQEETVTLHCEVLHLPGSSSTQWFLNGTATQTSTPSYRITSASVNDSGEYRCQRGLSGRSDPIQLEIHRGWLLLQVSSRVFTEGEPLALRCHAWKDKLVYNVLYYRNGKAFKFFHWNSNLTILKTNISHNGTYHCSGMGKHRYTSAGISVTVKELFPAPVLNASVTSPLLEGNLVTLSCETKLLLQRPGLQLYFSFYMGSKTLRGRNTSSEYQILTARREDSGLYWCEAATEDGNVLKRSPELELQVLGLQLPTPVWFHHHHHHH

He/Con 2b [1] [%] | He/Con 2aR [2] [%] | He/Con 1a [3] [%] | He/Con 2aH [4] [%] | Binder
71.2 | 91.4 | 104 | 85.9 | GpH7-A5/GpH7-B3 variant H268_08L/GpL16-k0 (antibody, human IgG1, kappa, heterodimerized IgG1, one H chain mutated; also called He Ab) heavy 1: not shown heavy 2: not shown light: DIVMTQSPLSLPVTPGEPASISCQASESLVHSNRNTYLHWYLQKPGQSPQLLIYKVSNRFSGVPDRFSGSGSGTDFTLKISRVEAEDVGVYYCSQNTHVPPTFGQGTKVEIERTVAAPSVFIFPPSDEQLKSGTASVVCLLNNFYPREAKVQWKVDNALQSGNSQESVTEQDSKDSTYSLSSTLTLSKADYEKHKVYACEVTHQGLSSPVTKSFNRGEC
168 | 137 | 106 | 114 | GpH7-A5/GpH7-B3 variant H268_13S/GpL16-k0 (antibody, human IgG1, kappa, heterodimerized IgG1, one H chain mutated; also called He Ab) heavy 1: not shown heavy 2: not shown light: DIVMTQSPLSLPVTPGEPASISCQASESLVHSNRNTYLHWYLQKPGQSPQLLIYKVSNRFSGVPDRFSGSGSGTDFTLKISRVEAEDVGVYYCSQNTHVPPTFGQGTKVEIERTVAAPSVFIFPPSDEQLKSGTASVVCLLNNFYPREAKVQWKVDNALQSGNSQESVTEQDSKDSTYSLSSTLTLSKADYEKHKVYACEVTHQGLSSPVTKSFNRGEC
94.3 | 113 | 103 | 90.9 | GpH7-A5/GpH7-B3 variant H268_12R/GpL16-k0 (antibody, human IgG1, kappa, heterodimerized IgG1, one H chain mutated; also called He Ab) heavy 1: not shown heavy 2: not shown light: DIVMTQSPLSLPVTPGEPASISCQASESLVHSNRNTYLHWYLQKPGQSPQLLIYKVSNRFSGVPDRFSGSGSGTDFTLKISRVEAEDVGVYYCSQNTHVPPTFGQGTKVEIERTVAAPSVFIFPPSDEQLKSGTASVVCLLNNFYPREAKVQWKVDNALQSGNSQESVTEQDSKDSTYSLSSTLTLSKADYEKHKVYACEVTHQGLSSPVTKSFNRGEC
140 | 128 | 104 | 104 | GpH7-A5/GpH7-B3 variant H268_19Q/GpL16-k0 (antibody, human IgG1, kappa, heterodimerized IgG1, one H chain mutated; also called He Ab) heavy 1: not shown heavy 2: not shown light: DIVMTQSPLSLPVTPGEPASISCQASESLVHSNRNTYLHWYLQKPGQSPQLLIYKVSNRFSGVPDRFSGSGSGTDFTLKISRVEAEDVGVYYCSQNTHVPPTFGQGTKVEIERTVAAPSVFIFPPSDEQLKSGTASVVCLLNNFYPREAKVQWKVDNALQSGNSQESVTEQDSKDSTYSLSSTLTLSKADYEKHKVYACEVTHQGLSSPVTKSFNRGEC
117 | 122 | 103 | 96.9 | GpH7-A5/GpH7-B3 variant H268_20W/GpL16-k0 (antibody, human IgG1, kappa, heterodimerized IgG1, one H chain mutated; also called He Ab) heavy 1: not shown heavy 2: not shown light: DIVMTQSPLSLPVTPGEPASISCQASESLVHSNRNTYLHWYLQKPGQSPQLLIYKVSNRFSGVPDRFSGSGSGTDFTLKISRVEAEDVGVYYCSQNTHVPPTFGQGTKVEIERTVAAPSVFIFPPSDEQLKSGTASVVCLLNNFYPREAKVQWKVDNALQSGNSQESVTEQDSKDSTYSLSSTLTLSKADYEKHKVYACEVTHQGLSSPVTKSFNRGEC
57.8 | 72.4 | 99.2 | 84.1 | GpH7-A5/GpH7-B3 variant L234_01G/GpL16-k0 (antibody, human IgG1, kappa, heterodimerized IgG1, one H chain mutated; also called He Ab) heavy 1: not shown heavy 2: not shown light: DIVMTQSPLSLPVTPGEPASISCQASESLVHSNRNTYLHWYLQKPGQSPQLLIYKVSNRFSGVPDRFSGSGSGTDFTLKISRVEAEDVGVYYCSQNTHVPPTFGQGTKVEIERTVAAPSVFIFPPSDEQLKSGTASVVCLLNNFYPREAKVQWKVDNALQSGNSQESVTEQDSKDSTYSLSSTLTLSKADYEKHKVYACEVTHQGLSSPVTKSFNRGEC
87.2 | 108 | 102 | 89.8 | GpH7-A5/GpH7-B3 variant H268_11K/GpL16-k0 (antibody, human IgG1, kappa, heterodimerized IgG1, one H chain mutated; also called He Ab) heavy 1: not shown heavy 2: not shown light: DIVMTQSPLSLPVTPGEPASISCQASESLVHSNRNTYLHWYLQKPGQSPQLLIYKVSNRFSGVPDRFSGSGSGTDFTLKISRVEAEDVGVYYCSQNTHVPPTFGQGTKVEIERTVAAPSVFIFPPSDEQLKSGTASVVCLLNNFYPREAKVQWKVDNALQSGNSQESVTEQDSKDSTYSLSSTLTLSKADYEKHKVYACEVTHQGLSSPVTKSFNRGEC
90.3 | 100 | 108 | 93.5 | GpH7-A5/GpH7-B3 variant H268_14T/GpL16-k0 (antibody, human IgG1, kappa, heterodimerized IgG1, one H chain mutated; also called He Ab) heavy 1: not shown heavy 2: not shown light: DIVMTQSPLSLPVTPGEPASISCQASESLVHSNRNTYLHWYLQKPGQSPQLLIYKVSNRFSGVPDRFSGSGSGTDFTLKISRVEAEDVGVYYCSQNTHVPPTFGQGTKVEIERTVAAPSVFIFPPSDEQLKSGTASVVCLLNNFYPREAKVQWKVDNALQSGNSQESVTEQDSKDSTYSLSSTLTLSKADYEKHKVYACEVTHQGLSSPVTKSFNRGEC
74.1 | 92.5 | 101 | 90.1 | GpH7-A5/GpH7-B3 variant L234_02A/GpL16-k0 (antibody, human IgG1, kappa, heterodimerized IgG1, one H chain mutated; also called He Ab) heavy 1: not shown heavy 2: not shown light: DIVMTQSPLSLPVTPGEPASISCQASESLVHSNRNTYLHWYLQKPGQSPQLLIYKVSNRFSGVPDRFSGSGSGTDFTLKISRVEAEDVGVYYCSQNTHVPPTFGQGTKVEIERTVAAPSVFIFPPSDEQLKSGTASVVCLLNNFYPREAKVQWKVDNALQSGNSQESVTEQDSKDSTYSLSSTLTLSKADYEKHKVYACEVTHQGLSSPVTKSFNRGEC
83.4 | 99 | 108 | 94.4 | GpH7-A5/GpH7-B3 variant L234_03V/GpL16-k0 (antibody, human IgG1, kappa, heterodimerized IgG1, one H chain mutated; also called He Ab) heavy 1: not shown heavy 2: not shown light: DIVMTQSPLSLPVTPGEPASISCQASESLVHSNRNTYLHWYLQKPGQSPQLLIYKVSNRFSGVPDRFSGSGSGTDFTLKISRVEAEDVGVYYCSQNTHVPPTFGQGTKVEIERTVAAPSVFIFPPSDEQLKSGTASVVCLLNNFYPREAKVQWKVDNALQSGNSQESVTEQDSKDSTYSLSSTLTLSKADYEKHKVYACEVTHQGLSSPVTKSFNRGEC
164 | 138 | 104 | 113 | GpH7-A5/GpH7-B3 variant H268_18N/GpL16-k0 (antibody, human IgG1, kappa, heterodimerized IgG1, one H chain mutated; also called He Ab) heavy 1: not shown heavy 2: not shown light: DIVMTQSPLSLPVTPGEPASISCQASESLVHSNRNTYLHWYLQKPGQSPQLLIYKVSNRFSGVPDRFSGSGSGTDFTLKISRVEAEDVGVYYCSQNTHVPPTFGQGTKVEIERTVAAPSVFIFPPSDEQLKSGTASVVCLLNNFYPREAKVQWKVDNALQSGNSQESVTEQDSKDSTYSLSSTLTLSKADYEKHKVYACEVTHQGLSSPVTKSFNRGEC
251 | 161 | 106 | 134 | GpH7-A5/GpH7-B3 variant H268_09D/GpL16-k0 (antibody, human IgG1, kappa, heterodimerized IgG1, one H chain mutated; also called He Ab) heavy 1: not shown heavy 2: not shown light: DIVMTQSPLSLPVTPGEPASISCQASESLVHSNRNTYLHWYLQKPGQSPQLLIYKVSNRFSGVPDRFSGSGSGTDFTLKISRVEAEDVGVYYCSQNTHVPPTFGQGTKVEIERTVAAPSVFIFPPSDEQLKSGTASVVCLLNNFYPREAKVQWKVDNALQSGNSQESVTEQDSKDSTYSLSSTLTLSKADYEKHKVYACEVTHQGLSSPVTKSFNRGEC
112 | 118 | 104 | 113 | GpH7-A5/GpH7-B3 variant H268_15Y/GpL16-k0 (antibody, human IgG1, kappa, heterodimerized IgG1, one H chain mutated; also called He Ab) heavy 1: not shown heavy 2: not shown light: DIVMTQSPLSLPVTPGEPASISCQASESLVHSNRNTYLHWYLQKPGQSPQLLIYKVSNRFSGVPDRFSGSGSGTDFTLKISRVEAEDVGVYYCSQNTHVPPTFGQGTKVEIERTVAAPSVFIFPPSDEQLKSGTASVVCLLNNFYPREAKVQWKVDNALQSGNSQESVTEQDSKDSTYSLSSTLTLSKADYEKHKVYACEVTHQGLSSPVTKSFNRGEC
242 | 159 | 107 | 126 | GpH7-A5/GpH7-B3 variant H268_10E/GpL16-k0 (antibody, human IgG1, kappa, heterodimerized IgG1, one H chain mutated; also called He Ab) heavy 1: not shown heavy 2: not shown light: DIVMTQSPLSLPVTPGEPASISCQASESLVHSNRNTYLHWYLQKPGQSPQLLIYKVSNRFSGVPDRFSGSGSGTDFTLKISRVEAEDVGVYYCSQNTHVPPTFGQGTKVEIERTVAAPSVFIFPPSDEQLKSGTASVVCLLNNFYPREAKVQWKVDNALQSGNSQESVTEQDSKDSTYSLSSTLTLSKADYEKHKVYACEVTHQGLSSPVTKSFNRGEC
